Experimental data taken from US20260167699A1 (Chugai, published 2026).
Residue numbers refer to the chain shown, from its start.

B1: GpH7-A5/GpH7-B3 variant S324_08L/GpL16-k0 (antibody, human IgG1, kappa)
heavy 1: not shown
heavy 2: not shown
light: DIVMTQSPLSLPVTPGEPASISCQASESLVHSNRNTYLHWYLQKPGQSPQLLIYKVSNRFSGVPDRFSGSGSGTDFTLKISRVEAEDVGVYYCSQNTHVPPTFGQGTKVEIERTVAAPSVFIFPPSDEQLKSGTASVVCLLNNFYPREAKVQWKVDNALQSGNSQESVTEQDSKDSTYSLSSTLTLSKADYEKHKVYACEVTHQGLSSPVTKSFNRGEC
notes: He Ab: heterodimerized IgG1, one H chain mutated
B2: GpH7-A5/GpH7-B3 variant Y296_16H/GpL16-k0 (antibody, human IgG1, kappa)
heavy 1: not shown
heavy 2: not shown
light: B1 light
notes: as for B1
B3: GpH7-A5/GpH7-B3 variant S324_15Y/GpL16-k0 (antibody, human IgG1, kappa)
heavy 1: not shown
heavy 2: not shown
light: B1 light
notes: as for B1
B4: GpH7-A5/GpH7-B3 variant S324_10E/GpL16-k0 (antibody, human IgG1, kappa)
heavy 1: not shown
heavy 2: not shown
light: B1 light
notes: as for B1
B5: GpH7-A5/GpH7-B3 variant Y300_03V/GpL16-k0 (antibody, human IgG1, kappa)
heavy 1: not shown
heavy 2: not shown
light: B1 light
notes: as for B1
B6: GpH7-A5/GpH7-B3 variant Y296_18N/GpL16-k0 (antibody, human IgG1, kappa)
heavy 1: not shown
heavy 2: not shown
light: B1 light
notes: as for B1
B7: GpH7-A5/GpH7-B3 variant S324_12R/GpL16-k0 (antibody, human IgG1, kappa)
heavy 1: not shown
heavy 2: not shown
light: B1 light
notes: as for B1
B8: GpH7-A5/GpH7-B3 variant Y300_02A/GpL16-k0 (antibody, human IgG1, kappa)
heavy 1: not shown
heavy 2: not shown
light: B1 light
notes: as for B1
B9: GpH7-A5/GpH7-B3 variant Y296_12R/GpL16-k0 (antibody, human IgG1, kappa)
heavy 1: not shown
heavy 2: not shown
light: B1 light
notes: as for B1
B10: GpH7-A5/GpH7-B3 variant Y296_07I/GpL16-k0 (antibody, human IgG1, kappa)
heavy 1: not shown
heavy 2: not shown
light: B1 light
notes: as for B1
B11: GpH7-A5/GpH7-B3 variant Y296_01G/GpL16-k0 (antibody, human IgG1, kappa)
heavy 1: not shown
heavy 2: not shown
light: B1 light
notes: as for B1
B12: GpH7-A5/GpH7-B3 variant S324_19Q/GpL16-k0 (antibody, human IgG1, kappa)
heavy 1: not shown
heavy 2: not shown
light: B1 light
notes: as for B1
B13: GpH7-A5/GpH7-B3 variant Y296_13S/GpL16-k0 (antibody, human IgG1, kappa)
heavy 1: not shown
heavy 2: not shown
light: B1 light
notes: as for B1
B14: GpH7-A5/GpH7-B3 variant Y296_11K/GpL16-k0 (antibody, human IgG1, kappa)
heavy 1: not shown
heavy 2: not shown
light: B1 light
notes: as for B1
B15: GpH7-A5/GpH7-B3 variant S324_18N/GpL16-k0 (antibody, human IgG1, kappa)
heavy 1: not shown
heavy 2: not shown
light: B1 light
notes: as for B1
B16: GpH7-A5/GpH7-B3 variant Y300_01G/GpL16-k0 (antibody, human IgG1, kappa)
heavy 1: not shown
heavy 2: not shown
light: B1 light
notes: as for B1
B17: GpH7-A5/GpH7-B3 variant S324_16H/GpL16-k0 (antibody, human IgG1, kappa)
heavy 1: not shown
heavy 2: not shown
light: B1 light
notes: as for B1
B18: GpH7-A5/GpH7-B3 variant Y296_20W/GpL16-k0 (antibody, human IgG1, kappa)
heavy 1: not shown
heavy 2: not shown
light: B1 light
notes: as for B1
B19: GpH7-A5/GpH7-B3 variant Y296_10E/GpL16-k0 (antibody, human IgG1, kappa)
heavy 1: not shown
heavy 2: not shown
light: B1 light
notes: as for B1
B20: GpH7-A5/GpH7-B3 variant Y296_02A/GpL16-k0 (antibody, human IgG1, kappa)
heavy 1: not shown
heavy 2: not shown
light: B1 light
notes: as for B1
B21: GpH7-A5/GpH7-B3 variant S324_09D/GpL16-k0 (antibody, human IgG1, kappa)
heavy 1: not shown
heavy 2: not shown
light: B1 light
notes: as for B1
B22: GpH7-A5/GpH7-B3 variant Y296_14T/GpL16-k0 (antibody, human IgG1, kappa)
heavy 1: not shown
heavy 2: not shown
light: B1 light
notes: as for B1
B23: GpH7-A5/GpH7-B3 variant Y296_09D/GpL16-k0 (antibody, human IgG1, kappa)
heavy 1: not shown
heavy 2: not shown
light: B1 light
notes: as for B1
B24: GpH7-A5/GpH7-B3 variant Y296_06M/GpL16-k0 (antibody, human IgG1, kappa)
heavy 1: not shown
heavy 2: not shown
light: B1 light
notes: as for B1
B25: GpH7-A5/GpH7-B3 variant Y296_19Q/GpL16-k0 (antibody, human IgG1, kappa)
heavy 1: not shown
heavy 2: not shown
light: B1 light
notes: as for B1
B26: GpH7-A5/GpH7-B3 variant Y296_08L/GpL16-k0 (antibody, human IgG1, kappa)
heavy 1: not shown
heavy 2: not shown
light: B1 light
notes: as for B1
B27: GpH7-A5/GpH7-B3 variant S324_11K/GpL16-k0 (antibody, human IgG1, kappa)
heavy 1: not shown
heavy 2: not shown
light: B1 light
notes: as for B1
B28: GpH7-A5/GpH7-B3 variant Y296_04F/GpL16-k0 (antibody, human IgG1, kappa)
heavy 1: not shown
heavy 2: not shown
light: B1 light
notes: as for B1
B29: GpH7-A5/GpH7-B3 variant Y296_03V/GpL16-k0 (antibody, human IgG1, kappa)
heavy 1: not shown
heavy 2: not shown
light: B1 light
notes: as for B1

What follows are binders tested against T1, FcγRIIa(R) (human, UniProt P12318 34-217) (assay: SPR, relative to GpH7-A5/GpH7-B3/GpL16-k0 =100).
T1 construct: extracellular domain; also called 2aR
T1 sequence: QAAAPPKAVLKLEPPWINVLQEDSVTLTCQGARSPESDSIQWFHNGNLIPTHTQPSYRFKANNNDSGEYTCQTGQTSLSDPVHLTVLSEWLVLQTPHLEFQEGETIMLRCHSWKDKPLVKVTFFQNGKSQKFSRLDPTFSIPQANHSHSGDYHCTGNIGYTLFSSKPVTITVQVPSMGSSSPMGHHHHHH

Binder	He/Con 2aR
B1	110%
B2	100%
B3	107%
B4	99%
B5	96.8%
B6	99.6%
B7	84%
B8	92.9%
B9	95.3%
B10	96.7%
B11	91.6%
B12	86.8%
B13	97.5%
B14	90.3%
B15	101%
B16	66.6%
B17	105%
B18	105%
B19	98.2%
B20	93%
B21	102%
B22	98.6%
B23	101%
B24	96.8%
B25	97.9%
B26	93.7%
B27	91%
B28	105%
B29	92%

What follows are binders tested against T2, FcγRIIb (human, UniProt P31994 43-217) (assay: SPR, relative to GpH7-A5/GpH7-B3/GpL16-k0 =100).
T2 construct: extracellular domain; also called 2b
T2 sequence: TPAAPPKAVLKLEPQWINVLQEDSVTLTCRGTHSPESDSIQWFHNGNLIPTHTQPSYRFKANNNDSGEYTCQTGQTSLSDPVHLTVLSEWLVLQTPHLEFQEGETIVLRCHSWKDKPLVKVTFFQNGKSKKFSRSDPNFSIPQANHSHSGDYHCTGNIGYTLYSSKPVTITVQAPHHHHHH

Binder	He/Con 2b
B1	117%
B2	93.5%
B3	115%
B4	101%
B5	96.5%
B6	92.8%
B7	82.4%
B8	90.5%
B9	80.5%
B10	85.5%
B11	80.4%
B12	87.2%
B13	87.5%
B14	73.8%
B15	106%
B16	63.2%
B17	109%
B18	105%
B19	99.4%
B20	83.1%
B21	112%
B22	89.4%
B23	100%
B24	89%
B25	90.5%
B26	83.5%
B27	89.6%
B28	101%
B29	80.4%

These binders were tested against T3, FcγRIIa(H) (human, UniProt P12318 34-217) (assay: SPR, relative to GpH7-A5/GpH7-B3/GpL16-k0 =100).
T3 construct: extracellular domain; also called 2aH
T3 sequence: T1 sequence with R134H

Binder	He/Con 2aH
B1	106%
B2	101%
B3	114%
B4	114%
B5	109%
B6	101%
B7	107%
B8	104%
B9	89.1%
B10	92.7%
B11	91.6%
B12	106%
B13	96.1%
B14	83.7%
B15	109%
B16	82.6%
B17	113%
B18	95.4%
B19	94%
B20	89.1%
B21	117%
B22	97.2%
B23	102%
B24	94.2%
B25	94.3%
B26	86.9%
B27	102%
B28	97.8%
B29	86.9%

The binders below were run against T4, FcγRIa (human, UniProt P12314 16-292) (assay: SPR, relative to GpH7-A5/GpH7-B3/GpL16-k0 =100).
T4 construct: extracellular domain; also called 1a
T4 sequence (P12314 other isoform, or with tags, fused parts or gaps): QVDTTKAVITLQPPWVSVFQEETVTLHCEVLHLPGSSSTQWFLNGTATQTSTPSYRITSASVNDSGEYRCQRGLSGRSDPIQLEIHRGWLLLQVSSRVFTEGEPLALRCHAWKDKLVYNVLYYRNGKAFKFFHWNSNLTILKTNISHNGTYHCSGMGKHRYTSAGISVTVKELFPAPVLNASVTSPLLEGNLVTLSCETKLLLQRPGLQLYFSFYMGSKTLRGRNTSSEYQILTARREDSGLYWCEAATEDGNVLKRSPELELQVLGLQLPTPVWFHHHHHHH

Binder	He/Con 1a
B1	97.3%
B2	103%
B3	107%
B4	98.9%
B5	110%
B6	102%
B7	95.9%
B8	106%
B9	103%
B10	101%
B11	99.4%
B12	106%
B13	102%
B14	102%
B15	109%
B16	110%
B17	106%
B18	107%
B19	102%
B20	99.8%
B21	97.7%
B22	102%
B23	103%
B24	101%
B25	108%
B26	101%
B27	96.3%
B28	101%
B29	101%
